Measurements from the Immune Epitope Database (IEDB).

Key:
[1] = target: HLA-A*02:01; assay: IEDB peptide-MHC binding, purified MHC/competitive/fluorescence; filed as Kd, often an IC50 or EC50 that approximates it; ≥ and ≤ were set here for values at or beyond the usual limits of such assays
[2] = target: HLA-B*48:01; assay: IEDB peptide-MHC binding, purified MHC/direct/fluorescence; filed as Kd, often an IC50 or EC50 that approximates it; ≥ and ≤ were set here for values at or beyond the usual limits of such assays
[3] = target: HLA-A*32:01; assay: IEDB peptide-MHC binding, purified MHC/competitive/radioactivity; filed as Kd, often an IC50 or EC50 that approximates it; ≥ and ≤ were set here for values at or beyond the usual limits of such assays
[4] = target: HLA-A*26:01; assay: as above
[5] = target: HLA-A*30:01; assay: as above
[6] = target: HLA-A*29:02; assay: as above
[7] = target: HLA-A*30:02; assay: as above
[8] = target: HLA-A*01:01; assay: as above
[9] = target: HLA-B*40:01; assay: as above
[10] = target: HLA-B*15:01; assay: IEDB peptide-MHC binding, purified MHC/direct/fluorescence; filed as Kd, often an IC50 or EC50 that approximates it; ≥ and ≤ were set here for values at or beyond the usual limits of such assays; details: source organism: Yellow fever virus
[11] = target: HLA-B*40:01; assay: as above; details: source organism: Yellow fever virus
[12] = target: HLA-B*58:01; assay: as above; details: source organism: Yellow fever virus
[13] = target: HLA-B*57:01; assay: as above; details: source organism: Yellow fever virus
[14] = target: HLA-B*46:01; assay: as above; details: source organism: Yellow fever virus
[15] = target: HLA-B*07:02; assay: as above; details: source organism: Yellow fever virus
[16] = target: HLA-B*44:02; assay: as above; details: source organism: Yellow fever virus
[17] = target: HLA-A*01:01; assay: as above; details: source organism: Yellow fever virus
[18] = target: HLA-A*03:01; assay: as above; details: source organism: Yellow fever virus
[19] = target: HLA-A*02:01; assay: as above; details: source organism: Yellow fever virus
[20] = target: HLA-A*69:01; assay: as above; details: source organism: Yellow fever virus
[21] = target: HLA-B*27:05; assay: as above; details: source organism: Orthohantavirus hantanense
[22] = target: HLA-B*44:03; assay: IEDB peptide-MHC binding, purified MHC/competitive/radioactivity; filed as Kd, often an IC50 or EC50 that approximates it; ≥ and ≤ were set here for values at or beyond the usual limits of such assays; details: source organism: Dengue virus 3 Martinique/1243/1999
[23] = target: HLA-B*44:02; assay: as above; details: source organism: Dengue virus 3 Martinique/1243/1999
[24] = target: HLA-B*51:01; assay: as above
[25] = target: HLA-A*24:02; assay: as above
[26] = target: HLA-A*23:01; assay: as above
[27] = target: HLA-B*08:01; assay: as above; details: source organism: Vaccinia virus WR
[28] = target: HLA-A*11:01; assay: as above; details: source organism: Triticum aestivum
[29] = target: HLA-A*33:01; assay: as above; details: source organism: Triticum aestivum
[30] = target: HLA-A*68:01; assay: as above; details: source organism: Triticum aestivum
[31] = target: HLA-A*31:01; assay: as above; details: source organism: Triticum aestivum
[32] = target: HLA-A*03:01; assay: as above; details: source organism: Triticum aestivum
[33] = source organism: Vaccinia virus Copenhagen
[34] = source organism: Mammarenavirus guanaritoense
[35] = source organism: Dengue virus 2 Jamaica/1409/1983
[36] = source organism: Mammarenavirus brazilense
[37] = source organism: Yellow fever virus
[38] = source organism: Dengue virus 3 Martinique/1243/1999
[39] = source organism: Dengue virus 1 Brazil/97-11/1997
[40] = source organism: Vaccinia virus WR
[41] = source organism: Lymphocytic choriomeningitis virus (strain Armstrong)
[42] = source organism: SARS coronavirus Tor2
[43] = source organism: Mammarenavirus lassaense
[44] = source organism: Mammarenavirus machupoense
[45] = source organism: Mammarenavirus whitewaterense
[46] = source organism: Triticum aestivum
[47] = source organism: Mammarenavirus choriomeningitidis

AMLNGLIYV
Kd ([1]; source organism: Variola virus): 0.0013 µM

AQAELDAAF
Kd ([2]; source organism: Salmonella enterica subsp. enterica serovar Paratyphi A str. ATCC 9150): 0.696 µM

AQDFQSLTI
Kd [3, 33]: 0.0676 µM

AQVTCLKFL
Kd ([2]; source organism: Cryptosporidium parvum Iowa II): 1.67 µM

CSKILDLCY
Kd [4, 34]: ≥ 54.6 µM
Kd [5, 34]: 14.9 µM
Kd [3, 34]: ≥ 50.9 µM
Kd [6, 34]: 3.62 µM
Kd [7, 34]: 0.664 µM
Kd [8, 34]: 0.0531 µM

DDVARAWSL
Kd ([2]; source organism: Mycobacterium tuberculosis str. Haarlem): ≥ 20 µM

EEEEQTLTIL
Kd [9, 35]: 0.0104 µM

ELLNTPYCNY
Kd [4, 36]: 0.275 µM
Kd [5, 36]: ≥ 70.4 µM
Kd [3, 36]: ≥ 39.9 µM
Kd [6, 36]: 0.837 µM
Kd [7, 36]: 0.206 µM
Kd [8, 36]: 12.3 µM

ERWFVRNPF
Kd [10]: ≥ 20 µM
Kd [11]: ≥ 20 µM
Kd [12]: ≥ 20 µM
Kd [13]: ≥ 20 µM
Kd [2, 37]: ≥ 20 µM
Kd [14]: ≥ 20 µM
Kd [15]: ≥ 20 µM
Kd [16]: ≥ 20 µM
Kd [17]: ≥ 20 µM
Kd [18]: ≥ 20 µM
Kd [19]: ≥ 20 µM
Kd [20]: ≥ 20 µM

GSAKLQWFVE
Kd [3, 38]: ≥ 69.9 µM

IRWYISLSF
Kd [3, 33]: 1.17 µM

ITANPIVTD
Kd [3, 39]: 2.42 µM

KRIAPMLYK
Kd [21]: 0.0407 µM
Kd ([2]; source organism: Orthohantavirus hantanense): ≥ 20 µM

KTIYLLSLF
Kd [3, 40]: 0.0103 µM

KVNTTIARY
Kd [4, 41]: 7.46 µM
Kd [5, 41]: 0.934 µM
Kd [3, 41]: 0.634 µM
Kd [6, 41]: 0.1 µM
Kd [7, 41]: 0.00593 µM
Kd [8, 41]: 1.63 µM

LEFFMMVLL
Kd [9, 38]: 0.0131 µM
Kd [22]: 2.64 µM
Kd [3, 38]: 2.04 µM
Kd [23]: 10.1 µM

LEFFMMVLLI
Kd [9, 38]: 12.2 µM
Kd [22]: 9.21 µM

LLFLEDVEP
Kd ([1]; source organism: Horsepox virus): ≥ 20 µM

LPLFIFSLK
Kd [24, 38]: 13.1 µM

LYEQVVMDY
Kd [25, 42]: ≥ 40.5 µM
Kd [4, 42]: ≥ 22.6 µM
Kd [6, 42]: 0.0122 µM
Kd [26, 42]: ≥ 58.2 µM
Kd [7, 42]: 0.173 µM
Kd [8, 42]: 15.1 µM

MAFIAFLRFL
Kd [24, 39]: 16.1 µM

MLMNHVANF
Kd [3, 40]: 0.00828 µM
Kd [27]: 0.00333 µM

MLVSQALNSV
Kd [1, 33]: 0.0034 µM

MTNTMRNAI
Kd [3, 40]: 0.106 µM

PEDPVEVALY
Kd [25, 43]: ≥ 70.3 µM
Kd [4, 43]: ≥ 69.7 µM
Kd [6, 43]: ≥ 43.4 µM
Kd [26, 43]: ≥ 70 µM
Kd [7, 43]: 1.43 µM
Kd [8, 43]: ≥ 41 µM

QMYKTPTLKY
Kd [25, 42]: ≥ 70.3 µM
Kd [4, 42]: 3.12 µM
Kd [6, 42]: 0.00681 µM
Kd [26, 42]: ≥ 70 µM
Kd [7, 42]: 0.0552 µM
Kd [8, 42]: 8.92 µM

RCWLIRNGSY
Kd [25, 44]: ≥ 70.3 µM
Kd [4, 44]: ≥ 69.7 µM
Kd [6, 44]: 4.81 µM
Kd [26, 44]: ≥ 34.7 µM
Kd [7, 44]: 0.0161 µM
Kd [8, 44]: ≥ 37.7 µM

RCWLTKNGSY
Kd [25, 45]: ≥ 70.3 µM
Kd [4, 45]: ≥ 23.3 µM
Kd [5, 45]: 3.79 µM
Kd [3, 45]: ≥ 69.9 µM
Kd [6, 45]: 8.92 µM
Kd [26, 45]: ≥ 70 µM
Kd [7, 45]: 0.0575 µM
Kd [8, 45]: 18.9 µM

RMLLNRFTM
Kd [3, 39]: 0.0194 µM

SETQHGTIL
Kd [9, 38]: 0.00395 µM
Kd [22]: 0.127 µM

SFQQPQQQY
Kd [28]: ≥ 77.9 µM
Kd [25, 46]: ≥ 77.6 µM
Kd [4, 46]: ≥ 43.7 µM
Kd [29]: ≥ 77.7 µM
Kd [6, 46]: 0.0841 µM
Kd [26, 46]: ≥ 77.8 µM
Kd [30]: ≥ 77.7 µM
Kd [31]: ≥ 77.9 µM
Kd [7, 46]: ≥ 63.2 µM
Kd [8, 46]: ≥ 68.9 µM
Kd [32]: ≥ 78 µM

SMSEIINNI
Kd [3, 40]: 0.245 µM

SRAWNVWEVE
Kd [3, 38]: ≥ 26.5 µM

SRLTYQWHK
Kd [2, 37]: ≥ 20 µM

SWLDFDEKLV
Kd [25, 34]: 14 µM
Kd [4, 34]: ≥ 69.7 µM
Kd [6, 34]: ≥ 71.4 µM
Kd [26, 34]: 0.32 µM
Kd [7, 34]: 4.94 µM
Kd [8, 34]: 6.1 µM

TEEIAVQNWL
Kd [9, 35]: 0.104 µM

TSQKSIVAY
Kd [25, 42]: ≥ 77.6 µM
Kd [4, 42]: 8.25 µM
Kd [6, 42]: 2.08 µM
Kd [26, 42]: ≥ 77.8 µM
Kd [7, 42]: 0.0254 µM
Kd [8, 42]: 1.18 µM

VGRAWENTI
Kd [25, 43]: 8.77 µM
Kd [4, 43]: ≥ 77.9 µM
Kd [6, 43]: ≥ 78.9 µM
Kd [26, 43]: 2.95 µM
Kd [7, 43]: 0.0991 µM
Kd [8, 43]: ≥ 26.7 µM

VLEDVQAAGI
Kd [1, 33]: 0.232 µM

VTERIFREY
Kd [4, 47]: ≥ 44.9 µM
Kd [5, 47]: 4.01 µM
Kd [3, 47]: 12.9 µM
Kd [6, 47]: 8.69 µM
Kd [7, 47]: 0.876 µM
Kd [8, 47]: 0.00862 µM

VYIGDPAQL
Kd [25, 42]: 0.107 µM
Kd [4, 42]: ≥ 77.9 µM
Kd [6, 42]: ≥ 22.8 µM
Kd [26, 42]: 1.18 µM
Kd [7, 42]: ≥ 78.9 µM
Kd [8, 42]: ≥ 78.1 µM

WCEFVDFSV
Kd [25, 34]: ≥ 77.5 µM
Kd [4, 34]: ≥ 77.9 µM
Kd [6, 34]: 2.47 µM
Kd [26, 34]: ≥ 53.3 µM
Kd [7, 34]: 7.9 µM
Kd [8, 34]: 0.341 µM

YEEFCNAVY
Kd [25, 43]: ≥ 77.5 µM
Kd [4, 43]: ≥ 77.9 µM
Kd [6, 43]: 0.426 µM
Kd [26, 43]: 10.1 µM
Kd [7, 43]: 0.762 µM
Kd [8, 43]: 5.37 µM

YRLRGEARK
Kd ([2]; source organism: Dengue virus 1 Singapore/S275/1990): ≥ 20 µM
